In publication PMC12328215, “Interactions between TTYH2 and APOE facilitate endosomal lipid transfer” (Nature, 2025):

Target: T1, human TTYH3 (Tweety homologue 3), detergent-solubilized and purified (human, UniProt Q9C0H2)
T1 construct: Tweety homologue 3 (TTYH3), human; gene (Genscript) cloned into the vector pcDXC3MS; Homodimer; source: HEK293 GNTI− cells, transiently transfected, purified in GDN (Strep-Tactin, SEC)
Assay: SEC; TTYH2 or TTYH3 with a 1.6 molar excess of sybody on a Superose 6 Increase 5/150 GL column; sybody in the TTYH peak fractions detected by SDS–PAGE
Conditions: both partners purified

T1 sequence (Q9C0H2 2-523): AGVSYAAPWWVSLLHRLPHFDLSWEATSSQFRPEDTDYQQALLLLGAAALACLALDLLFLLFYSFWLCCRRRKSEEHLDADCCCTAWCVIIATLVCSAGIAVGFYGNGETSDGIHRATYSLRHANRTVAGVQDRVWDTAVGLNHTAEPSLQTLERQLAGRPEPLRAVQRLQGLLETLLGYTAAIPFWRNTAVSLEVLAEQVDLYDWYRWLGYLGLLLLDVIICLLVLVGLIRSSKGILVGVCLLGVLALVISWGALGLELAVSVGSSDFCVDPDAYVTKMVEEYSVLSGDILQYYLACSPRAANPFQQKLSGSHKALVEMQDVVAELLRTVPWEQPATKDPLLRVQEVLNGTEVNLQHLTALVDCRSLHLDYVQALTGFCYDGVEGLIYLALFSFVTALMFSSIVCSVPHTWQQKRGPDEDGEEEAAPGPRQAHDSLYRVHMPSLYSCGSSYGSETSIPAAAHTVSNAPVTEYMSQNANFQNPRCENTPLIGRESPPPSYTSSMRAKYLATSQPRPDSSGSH

| binding result | Binder |
| --- | --- |
| no binding | sybody Sb2^TTYH2 (VHH, synthetic nanobody from the loop library (medium CDR3); For force spectroscopy immobilised on glass by the protocol used for APOE, or added soluble at 20–50 µM; also called Syb2; unlabelled Sb2; source: E. coli MC1061, periplasmic expression, purified (Ni-NTA, SEC)) VHH: QVQLVESGGGLVQAGGSLRLSCAASGFPVTNDSMHWYRQAPGKEREWVAAIASQGRGTAYADSVKGRFTISRDNAKSTVYLQMNSLKPEDTAVYYCNVKDYGYDLQWYDYWGQGTQVTVS |
| no binding | sybody Sb1^TTYH2 (VHH, synthetic nanobody from the concave library (short CDR3); also called Syb1; source: E. coli MC1061, periplasmic expression, purified (Ni-NTA, SEC)) VHH: QVQLVESGGGLVQAGGSLRLSCTASGFPVAFAQMKWYRQAPGKEREWVAAIWSMGNETTYADSVKGRFTISRDNAKNTVYLQMNSLKPEDTAVYYCAVEVGYGYHGQGTQVTVS |
